Ends that are not written are not given here.
Tests used:
[1] = Degradation of synthetic peptides added to fresh plasma, MALDI-TOF MS read-out; format: in vitro ADME, human
Method: In an effort to begin to understand the presence and roles of exoproteases, synthetic C3f was added to fresh plasma at a concentration close to that observed in serum. […] The resulting pattern was similar to the endogenous one observed in serum and also illustrated the disparate ion intensities for different rungs in the ladder.

[2] = Degradation of synthetic peptides in control serum and plasma (MALDI-TOF MS-based protease assay); format: in vitro ADME, human
From the text: A large part of the human serum ‘peptidome’, as detected by MALDI-TOF MS, is generated ex vivo (i.e., after blood collection) by protease degradation of blood proteins. Endoproteases produce ‘founder peptides’ which are then pared down by exoproteases into ladder-like clusters. Panels of proteolytic activity in the blood contribute important cancer type-specific information, and that the resulting metabolic patterns have utility as surrogate markers for detection and classification of cancer. Degradation occurs during clotting. The use of exogenous synthetic peptides, identical to previously observed founder peptides, can be used to monitor cancer-specific proteolytic degradation in plasma or serum that contains proteases. Conditions in terms of time, temperature and added amounts of substrates can hereby be readily controlled. Coupled to a MALDI-based read-out, such analyses are blood “protease assays” to monitor the tumor-dependent activities inferred from prior studies. Simultaneous addition of non-degradable, exogenous reference peptides also enables relative quantitation of all rungs in the ladders.
The degradation conditions and times were studied for C3f and FPA in serum and plasma as described above. […] 2 picomoles [^13C-Leu]-labeled C3f was incubated for 30 min at RT with […] aliquots of serum from 20 different breast cancer patients and 20 control samples. […]

Row | Substance | exoproteolytic degradation in plasma (in words) [1] | degradation in control serum and plasma (in words) [2] | degradation time [2]
1 | FPA: synthetic fibrinopeptide A, N-terminally cleaved from fibrinogen by thrombin (ADSGEGDFLAEGGGVR; Fibrinopeptide A; UniProt P02671 20-35, looked up) | followed a similar time course | readily degraded | up to 4 hours
2 | FPB: fibrinopeptide B, added to plasma like synthetic FPA (QGVNDNEEGFFSAR; ends and bridges not checked; UniProt P02675 31-44, looked up) | completely degraded in just a few minutes | – | –

From patent US20110312522A1, “METHODS OF DETECTION OF CANCER USING PEPTIDE PROFILES” (Sloan-Kettering Institute for Cancer Research, priority 2005, published 2011)
